We go through three molecules from patent US20150204859, “MULTIPLEXED MICROCOLUMN DEVICES AND PROCESSES FOR SELECTION OF NUCLEIC ACID APTAMERS” (CORNELL UNIVERSITY, published 2015).

One series addresses GFP (UniProt P42212). Conditions: RNA transcript; printed sequence is the DNA template strand (RNA is its reverse complement); microcolumn qPCR recovery fit by simulation; non-specific background binding.
Series [1] deals with T1, hHSF2 (Homo sapiens, UniProt Q03933 Q03933:1-536). Description: EMSA; confirmed by FP (FIG. 22B); exact value only in figure. The conditions noted are these: tags: N-terminal GST; E. coli BL21(DE3)-RIPL; label: 3'-fluorescein (5-thiosemicarbazide). Here is the method: (§1) The candidate aptamers were 3′-end labeled with fluorescein 5-thiosemicarbazide (Invitrogen) as described previously (Ref. 16). 50 μL binding reactions were prepared with 2 nM fluorescently-labeled RNA and decreasing amounts of protein (2000 to 0 nM) in binding buffer containing 0.01% IGEPAL CA630, 10 μg/ml tRNA, and 3U of SUPERase•In RNase Inhibitor (Invitrogen). […] The gel was run for 80 minutes at 100 volts in refrigerated 0.5×TBE. Images were acquired using the fluorescein scan settings on a Typhoon 9400 imager (GE Healthcare Life Sciences). The resulting bands were quantified with ImageQuant software and the data was fit to the Hill equation using Igor (Wavemetrics) to estimate the equilibrium dissociation constant (KD).
(§2) The putative RNA aptamers were fluorescently end-labeled and then tested for binding to their hHSF targets using F-EMSA and FP assays (Ref. 16). An image of a typical F-EMSA result is shown in FIG. 17A for hHSF1-R5-1 aptamer binding to hHSF1 protein. […] The F-EMSA results were confirmed by the FP assays (FIGS. 22 and 23). Thus, the observed binding is not due to the affinity tags on the protein targets but rather specific domains of the targets themselves.
(In general: Mobility shift assays separate free from complexed probe on a gel.)

Series [2] has as its target T2, GST tag (UniProt P08515 P08515:1-218). Description: EMSA; no binding to GST tag alone; FP FIG. 22D. The conditions noted are these: tags: GST tag alone, ~30 kDa; label: 3'-fluorescein (5-thiosemicarbazide). Here is the method:
as §1, §2

Series [3] concerns the target T3, hHSF1 (Homo sapiens, UniProt Q00613 Q00613:1-529). Kind of series: EMSA; room temperature 2 h, 10 ug/ml tRNA; confirmed by FP (FIG. 22A); exact value only in figure. The conditions noted are these: tags: N-terminal GST; E. coli BL21(DE3)-RIPL; label: 3'-fluorescein (5-thiosemicarbazide). As for the experimental part: as §1, §2
Series [4] addresses T3, hHSF1. Description: EMSA; confirmed by FP (FIG. 23A); exact value only in figure. Conditions: tags: N-terminal GST; E. coli BL21(DE3)-RIPL; label: 3'-fluorescein (5-thiosemicarbazide). Here is the method:
as §1, §2

For series [5], the target named is T2, GST tag. Kind of series: EMSA; no binding to GST tag alone; FP FIG. 23D. Conditions: tags: GST tag alone, ~30 kDa; label: 3'-fluorescein (5-thiosemicarbazide). As for the experimental part:
as §1, §2

Series [6] addresses T1, hHSF2. Description: EMSA; room temperature 2 h, 10 ug/ml tRNA; confirmed by FP (FIG. 23B); exact value only in figure. The conditions noted are these: tags: N-terminal GST; E. coli BL21(DE3)-RIPL; label: 3'-fluorescein (5-thiosemicarbazide). Here is the method: as §1, §2

T3 sequence (Q00613 whole entry, one chain of several): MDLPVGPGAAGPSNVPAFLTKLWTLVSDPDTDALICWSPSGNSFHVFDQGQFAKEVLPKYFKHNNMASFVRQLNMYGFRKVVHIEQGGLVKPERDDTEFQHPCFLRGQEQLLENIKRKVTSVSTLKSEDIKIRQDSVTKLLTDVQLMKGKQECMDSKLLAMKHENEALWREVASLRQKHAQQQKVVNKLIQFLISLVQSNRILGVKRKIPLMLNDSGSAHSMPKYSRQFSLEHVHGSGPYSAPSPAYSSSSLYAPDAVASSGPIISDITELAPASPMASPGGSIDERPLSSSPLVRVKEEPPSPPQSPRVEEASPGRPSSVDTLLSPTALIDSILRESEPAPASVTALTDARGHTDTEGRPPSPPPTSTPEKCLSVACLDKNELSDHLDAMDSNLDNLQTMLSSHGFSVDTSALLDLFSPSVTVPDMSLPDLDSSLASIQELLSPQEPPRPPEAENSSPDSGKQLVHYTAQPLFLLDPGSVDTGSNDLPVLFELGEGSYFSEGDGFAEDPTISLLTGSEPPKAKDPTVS
T1 sequence (Q03933 whole entry, one chain of several): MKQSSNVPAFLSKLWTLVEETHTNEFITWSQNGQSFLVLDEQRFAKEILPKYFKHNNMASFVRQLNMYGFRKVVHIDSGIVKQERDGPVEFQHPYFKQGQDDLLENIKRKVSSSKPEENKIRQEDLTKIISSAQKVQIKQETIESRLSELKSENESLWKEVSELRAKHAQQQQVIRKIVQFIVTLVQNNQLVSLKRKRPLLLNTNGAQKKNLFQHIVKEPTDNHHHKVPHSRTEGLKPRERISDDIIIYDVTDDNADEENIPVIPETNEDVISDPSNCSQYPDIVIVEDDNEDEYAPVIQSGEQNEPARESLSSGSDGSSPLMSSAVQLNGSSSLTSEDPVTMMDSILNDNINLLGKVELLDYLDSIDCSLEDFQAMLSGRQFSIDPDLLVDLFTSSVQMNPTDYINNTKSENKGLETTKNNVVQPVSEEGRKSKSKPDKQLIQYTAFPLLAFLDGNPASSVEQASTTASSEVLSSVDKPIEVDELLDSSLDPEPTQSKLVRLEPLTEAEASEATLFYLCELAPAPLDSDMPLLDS
T2 sequence (P08515 whole entry, one chain of several): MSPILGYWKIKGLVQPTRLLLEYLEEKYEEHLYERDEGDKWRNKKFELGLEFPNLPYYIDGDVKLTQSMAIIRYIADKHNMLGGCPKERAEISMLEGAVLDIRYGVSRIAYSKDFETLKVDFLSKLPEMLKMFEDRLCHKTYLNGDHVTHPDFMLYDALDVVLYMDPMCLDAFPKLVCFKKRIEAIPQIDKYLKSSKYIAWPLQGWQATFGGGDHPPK

Consider “AAGCUUCGUCAAGUCUGCAGUGAANNNNNNNNNNNNNNNNNNNNNNNNNNNNNNNNNNNNNNNNNNNNNNNNNNNNNNNNNNNNNNNNNNNNNNGAAUUCGUAGAUGUGGAUCCAUUCCC [N70 random RNA library]”, for which the equilibrium dissociation constant (Kd) with GFP is more than 10000 nM.

B1: hHSF1-R5-1 (ssRNA)
RNA: GGGAAUGGAUCCACAUCUACGAAUUCAAUCAAGUCCCCAGACUCAGCAACACUGGACAGCGAUAUGCAGAUAACCAAGACCAAUUCACUCCAGUUCACUGCAGACUUGACGAAGCUU
With B1, the equilibrium dissociation constant (Kd) in the series with hHSF2 [1] and with hHSF1 [3] was less than 20 nM in each case. Besides, in the series with GST tag [2], the binding result was “no binding”.

B2: hHSF2-R5-2 (ssRNA)
RNA: B1 RNA
On to B2, for which the Kd with hHSF1 [4] and with hHSF2 [6] was less than 20 nM each time. Besides, in the series with GST tag [5], the binding result is recorded as “no binding”.

In general, Kd refers to the constant that tells how readily two partners part at equilibrium. Read a low Kd as a tighter complex.
